Legend:
[1] = biological target: T1, rHuman Notch-1/Fc Chimera, CF (Cat# 3647-TK) (human, UniProt P46531 19-526); assay: Multispot ECL; Fab 8.1 nM
T1 construct: Bought from R&D Systems
Method: (§1) An 150 μl aliquot of 1% Bovine Serum Albumin (BSA) in Tris-buffered Saline Tween (TBST) was added to each well and allowed to incubate for 30 min at 20° C. followed by washing and tap drying to completely remove any residual solution. Subsequently, a 12.5 μl aliquot of 1% BSA TBST was added to each well followed by the addition of a 12.5 μl aliquot of a purified Fab. The plate was sealed and incubated for 1 hour at 20° C. with shaking.
(§2) Detection antibodies were prepared by individually conjugating both goat anti-human Kappa light chain polyclonal antibody (K3502-1MG, Sigma-Aldrich) and goat anti-human Lambda light chain polyclonal antibody (L1645-1 mL, Sigma-Aldrich) with Ruthenium (II) tris-bipyridine-(4-methylsulfone)-N-hydroxysuccinimide (SULFO-TAG NHS-ester, Meso Scale Discovery) according to the manufacturer's instructions. TAG-detection antibody at 25 μl was added to each well and allowed to incubate for 1 hour at 20° C. with shaking. Finally, 15 μl of Read Buffer P with Surfactant (Cat # R92PC-1, Meso Scale Discovery) was added to each well. The electrochemiluminescence was measured using a Sector Imager 2400 (Meso Scale Discovery). Data was analyzed by comparing the ECL signals for an antigen to the blank of each well. A signal to blank ratio of 4 or more was considered a “Hit” Fab.
(§3) To confirm a “Hit” from the initial Multispot ECL screening, a Fab concentration dependent titration was carried out to determine the Fab-antigen binding affinity.

[2] = biological target: T2, rHuman Erythropoietin R/Fc Chimera, CF (Cat# 963-ER) (human, UniProt P19235 25-250); assay: Multispot ECL; Fab 8.1 nM
T2 construct: Bought from R&D Systems; also called EPO R/Fc; Epo R/Fc chimera
T2 sequence (looked up): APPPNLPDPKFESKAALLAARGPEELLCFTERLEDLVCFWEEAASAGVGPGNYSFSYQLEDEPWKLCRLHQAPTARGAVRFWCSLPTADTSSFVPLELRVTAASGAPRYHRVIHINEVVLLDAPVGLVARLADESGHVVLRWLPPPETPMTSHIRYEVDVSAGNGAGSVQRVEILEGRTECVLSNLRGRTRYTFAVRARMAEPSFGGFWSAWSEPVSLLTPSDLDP
Method: as §1, §2, §3

[3] = biological target: T3, Recombinant Human DLL4 (Cat# 1506-D4/CF) (human, UniProt Q9NR61 27-529); assay: Multispot ECL; Fab 8.1 nM
T3 construct: Bought from R&D Systems; also called rHuman DLL4; hDLL4
Method: as §1, §2, §3

[4] = biological target: T4, rHuman EGF R/Fc Chimera, CF (Cat# 344-ER) (human, UniProt P00533 25-645); assay: Multispot ECL; Fab 8.1 nM
T4 construct: Bought from R&D Systems; also called epidermal growth factor receptor (EGF R)
Method: as §1, §2, §3

[5] = biological target: T5, rHuman ErbB2/Fc Chimera, CF (Cat# 1129-ER) (human, UniProt P04626 23-652); assay: Multispot ECL; Fab 8.1 nM
T5 construct: Bought from R&D Systems; also called human epidermal growth factor 2 receptor (ErbB2)
Method: as §1, §2, §3

[6] = biological target: T6, rHuman IGF-1 sR, (IGF-1 sR), CF (Cat# 391-GR) (human, UniProt P08069 31-932); assay: Multispot ECL; Fab 8.1 nM
T6 construct: Bought from R&D Systems; also called insulin-like growth factor-1 soluble receptor
Method: as §1, §2, §3

[7] = biological target: T7, rHuman HGF R/c-MET/Fc Chimera, CF (Cat# 358-MT/CF) (human, UniProt P08581 25-932); assay: Multispot ECL; Fab 8.1 nM
T7 construct: Bought from R&D Systems; also called HGF R/Fc; hepatocyte growth factor receptor (HGF R/c-Met)
Method: as §1, §2, §3

[8] = biological target: T8, rHuman CD44/Fc Chimera, CF (Cat# 3660-CD) (human, UniProt P16070 21-220); assay: Multispot ECL; Fab 8.1 nM
T8 construct: Bought from R&D Systems
Method: as §1, §2, §3

[9] = biological target: T1, rHuman Notch-1/Fc Chimera, CF (Cat# …); assay: Multispot ECL; Fab 130 nM
Method: as §1, §2, §3

[10] = biological target: T2, rHuman Erythropoietin R/Fc Chimera, CF …; assay: Multispot ECL; Fab 130 nM
Method: as §1, §2, §3

[11] = biological target: T4, rHuman EGF R/Fc Chimera, CF (Cat# …); assay: Multispot ECL; Fab 130 nM
Method: as §1, §2, §3

[12] = biological target: T1, rHuman Notch-1/Fc Chimera, CF (Cat# …); assay: Multispot ECL; Fab 2.0 nM
Method: as §1, §2, §3

[13] = biological target: T2, rHuman Erythropoietin R/Fc Chimera, CF …; assay: Multispot ECL; Fab 2.0 nM
Method: as §1, §2, §3

[14] = biological target: T3, Recombinant Human DLL4 (Cat# 1506-D4/CF); assay: Multispot ECL; Fab 2.0 nM
Method: as §1, §2, §3

[15] = biological target: T4, rHuman EGF R/Fc Chimera, CF (Cat# …); assay: Multispot ECL; Fab 2.0 nM
Method: as §1, §2, §3

[16] = biological target: T5, rHuman ErbB2/Fc Chimera, CF (Cat# …); assay: Multispot ECL; Fab 2.0 nM
Method: as §1, §2, §3

[17] = biological target: T6, rHuman IGF-1 sR, (IGF-1 sR), CF (Cat# …); assay: Multispot ECL; Fab 2.0 nM
Method: as §1, §2, §3

[18] = biological target: T7, rHuman HGF R/c-MET/Fc Chimera, CF (Cat# …); assay: Multispot ECL; Fab 2.0 nM
Method: as §1, §2, §3

[19] = biological target: T8, rHuman CD44/Fc Chimera, CF (Cat# …); assay: Multispot ECL; Fab 2.0 nM
Method: as §1, §2, §3

B1: Fab VH1-8_IGHD2-2*01_IGHJ6*01 & L12_IGKJ1*01 (Fab, V domains shown)
VH: QVQLVQSGAEVKKPGASVKVSCKASGYTFTSYDINWVRQATGQGLEWMGWMNPNSGNTGYAQKFQGRVTMTRNTSISTAYMELSSLRSEDTAVYYCARGGYCSSTSCYADYYYYYGMDVWGQGTTVTVSS
VL: not shown
- ECL signal [1]: 612
- ECL signal [2]: 660
- ECL signal [3]: 1550
- ECL signal [4]: 560
- ECL signal [5]: 557
- ECL signal [6]: 518
- ECL signal [7]: 551
- ECL signal [8]: 528
- ECL signal [9]: 1760
- ECL signal [10]: 2150
- ECL signal [11]: 1750
- ECL signal [12]: 539
- ECL signal [13]: 433
- ECL signal [14]: 605
- ECL signal [15]: 424
- ECL signal [16]: 382
- ECL signal [17]: 367
- ECL signal [18]: 356
- ECL signal [19]: 447

Reference: US20110318339A1 (FABRUS, published 2011)
